From article PMC7235218, “HIV-1 Tat – TLR4/MD2 interaction drives the expression of IDO-1 in monocytes derived dendritic cells through NF-κB dependent pathway” (Scientific Reports, 2020)

Biological target: T1, Recombinant human TLR4/MD2 complex (human, UniProt O00206 24-631; Q9Y6Y9 19-160)
T1 construct: Toll-like receptor 4 (TLR4), human, soluble recombinant; MD2 (lymphocyte antigen 96), human, recombinant; No catalogue number is printed; also called rTLR4/MD2; soluble recombinant TLR4/MD2; source: bought: R&D system
Experiment: ELISA; solid-phase binding assay: recombinant TLR4/MD2 (1 µg/ml) coated on 96 maxisorp well plates overnight at 4 °C; GST or GST-Tat at 0.1-1 µM for 2 hours at room temperature; detected with anti-GST and a peroxidase-conjugated secondary antibody
Settings: both partners purified

T1 sequence (O00206 24-631, chain 1 of 2): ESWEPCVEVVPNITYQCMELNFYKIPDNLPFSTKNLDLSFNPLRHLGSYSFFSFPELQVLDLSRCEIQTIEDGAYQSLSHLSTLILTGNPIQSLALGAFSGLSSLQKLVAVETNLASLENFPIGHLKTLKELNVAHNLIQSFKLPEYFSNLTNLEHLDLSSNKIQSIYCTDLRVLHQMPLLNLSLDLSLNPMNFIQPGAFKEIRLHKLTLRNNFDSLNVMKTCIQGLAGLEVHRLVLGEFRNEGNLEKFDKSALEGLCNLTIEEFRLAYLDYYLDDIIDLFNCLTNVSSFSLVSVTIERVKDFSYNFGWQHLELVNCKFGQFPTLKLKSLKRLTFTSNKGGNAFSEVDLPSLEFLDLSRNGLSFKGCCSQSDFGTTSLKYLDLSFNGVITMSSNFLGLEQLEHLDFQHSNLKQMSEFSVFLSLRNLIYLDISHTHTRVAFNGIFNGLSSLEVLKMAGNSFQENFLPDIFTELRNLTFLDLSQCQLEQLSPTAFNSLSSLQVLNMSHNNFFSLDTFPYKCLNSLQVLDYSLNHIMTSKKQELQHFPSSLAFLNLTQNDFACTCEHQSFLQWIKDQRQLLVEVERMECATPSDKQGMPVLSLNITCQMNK
T1 sequence (Q9Y6Y9 19-160, chain 2 of 2): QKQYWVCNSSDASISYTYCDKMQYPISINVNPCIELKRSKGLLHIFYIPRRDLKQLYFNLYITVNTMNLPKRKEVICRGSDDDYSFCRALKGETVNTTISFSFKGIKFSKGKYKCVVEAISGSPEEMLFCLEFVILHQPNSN

B1: Recombinant HIV-1 Tat full length protein (Tat 1-101) fused to glutathione S-transferase (natural protein)
chain: MEPVDPNLEPWKHPGSQPRTACNNCYCKKCCFHCYACFTRKGLGISYGRKKRRQRRRAPQDSQTHQASLSKQPASQSRGDPTGPTESKKKVERETETDPFD
notes: Tat protein of HIV-1 group M subtype B (isolate SF2), full length protein, Tat 1-101; Endotoxin below 0.3 EU/µg; also called GST-Tat 1-101; GST-Tat1-101
B1: binds.
